The record followed here is PMC3231483.

Data set [1] has as its target T1, thrombin (human, UniProt P00734;P00734 328-363;364-622). The experiment in a line: guided mode resonance sensor (kinetic, Langmuir 1:1); 0.50 uM thrombin; ka 1.52e5 M-1s-1, kd 0.61e-1 s-1; Aptamer immobilized from 1 uM in PBS; assay buffer, salt and temperature not given in the material (Tris-HCl pH 7.4 and sodium phosphate listed as reagents); re.
Data set [2] has as its target T1, thrombin. As to the kind of experiment: guided mode resonance sensor (kinetic, Langmuir 1:1); 1.50 uM thrombin; ka 0.20e5 M-1s-1, kd 1.33e-1 s-1; Aptamer immobilized from 1 uM in PBS; assay buffer, salt and temperature not given in the material (Tris-HCl pH 7.4 and sodium phosphate listed as reagents); re.
The target of data set [3] is T1, thrombin. The experiment in a line: guided mode resonance sensor (kinetic, Langmuir 1:1); 1.00 uM thrombin; ka 0.18e5 M-1s-1, kd 1.54e-1 s-1; Aptamer immobilized from 1 uM in PBS; assay buffer, salt and temperature not given in the material (Tris-HCl pH 7.4 and sodium phosphate listed as reagents); re.
For data set [4], the target named is T1, thrombin. As to the kind of experiment: guided mode resonance sensor (kinetic, Langmuir 1:1); 0.75 uM thrombin; ka 1.83e5 M-1s-1, kd 0.30e-1 s-1; Aptamer immobilized from 1 uM in PBS; assay buffer, salt and temperature not given in the material (Tris-HCl pH 7.4 and sodium phosphate listed as reagents); re.
Data set [5] deals with T1, thrombin. The experiment in a line: guided mode resonance sensor (kinetic, Langmuir 1:1); 0.25 uM thrombin; ka 2.06e5 M-1s-1, kd 1.05e-1 s-1; Aptamer immobilized from 1 uM in PBS; assay buffer, salt and temperature not given in the material (Tris-HCl pH 7.4 and sodium phosphate listed as reagents); re.
Data set [6] addresses T1, thrombin. The experiment in a line: guided mode resonance sensor (Langmuir linear regression); 0.25-1 uM thrombin; order of magnitude only; Aptamer immobilized from 1 uM in PBS; assay buffer, salt and temperature not given in the material (Tris-HCl pH 7.4 and sodium phosphate listed as reagents); re.

Regarding AGTCCGTGGTAGGGCAGGTTGGGGTGACT (structured_DNA, 5' NH2) [29-mer thrombin aptamer (TBA)], the Ka was 2.5 10^6 M^-1 with thrombin [1]; 0.15 10^6 M^-1 with thrombin [2]; 0.12 10^6 M^-1 with thrombin [3]; 6.18 10^6 M^-1 with thrombin [4]; 1.95 10^6 M^-1 in the data set with thrombin [5]; ~1 10^6 M^-1 with thrombin [6].
